Columns and labels:
[1] = target: T1, 人TSLP (human, UniProt Q969D9 29-159); experiment: BLI (ForteBio Blitz)
T1 construct: also called hTSLP; 人胸腺基质淋巴细胞生成素

[2] = target: rhTSLP-hFc (human); experiment: competition ELISA: rhTSLP-hFc coated, antibody titrated against 2 μg/ml rhTSLPR-His, anti-His-HRP detection
[3] = target: rhTSLP-hFc (human); experiment: cell-based or functional assay
[4] = target: T2, rhTSLP-mFc融合蛋白 (human); experiment: ELISA: rhTSLP-mFc coated, goat anti-human IgG-HRP detection
T2 construct: Expressed in 293F cells and purified on protein A; also called 人重组TSLP蛋白

B1: 鼠源TSLP单克隆抗体7A9E3G10E5(6K/3H) (antibody, mouse IgG1, kappa)
heavy: EVKLVETGAELVRPGALVKLSCKTSGFNIKDYYMHWVKQRPEQGLEWIGWIDPENGNTIYDPKFQGKASITADTSSNTAYLHLSSLTSEDTAVYYCAREGDGNYLWFAYWGQGTLVTVSAAKTTPPSVYPLAPGSAAQTNSMVTLGCLVKGYFPEPVTVTWNSGSLSSGVHTFPAVLESDLYTLSSSVTVPSSPRPSETVTCNVAHPASSTKVDKKIVPRDCGCKPCICTVPEVSSVFIFPPKPKDVLTITLTPKVTCVVVDISKDDPEVQFSWFVDDVEVHTAQTQPREEQFNSTFRSVSELPIMHQDWLNGKEFKCRVNSAAFPAPIEKTISKTKGRPKAPQVYTIPPPKEQMAKDKVSLTCMITDFFPEDITVEWQWNGQPAENYKNTQPIMNTNGSYFVYSKLNVQKSNWEAGNTFTCSVLHEGLHNHHTEKSLSHSPGK
light: DILLTQSPSSLSASLGGKVIITCKASQDINKYIAWYQHKPGKGLRLLIHYTSTLEPGIPSRFSGSGSGRDYSFSISNLEPEDIATYYCLHYDNLLTFGDGTKLELKRADAAPTVSIFPPSSEQLTSGGASVVCFLNNFYPKDINVKWKIDGSERQNGVLNSWTDQDSKDSTYSMSSTLTLTKDEYERHNSYTCEATHKTSTSPIVKSFNRNEC
notes: also called 鼠源单克隆抗体6K/3H
- Kd [1]: 20.1 nM
- koff [1]: 0.00506 s⁻¹
- kon [1]: 252000 M⁻¹ s⁻¹
- IC50 [2]: 0.428 µg/mL

B2: 人源化单克隆抗体1K3/1H2 (antibody, human IgG1, kappa, V domains shown)
VH: EVKLVESGGGLVQPGGSLKLSCAASGFTFSSFGMNWVRQAPGKGLEWVAYISSGSSIIYYADSVKGRFTISRDNPKNSLYLQMNSLRDEDTAVYYCAREPYGYDVYYFDYWGQGTTVTVSS
VL: DIVMTQSPASLAVSPGQRATISCKASQSIDYDGDSYMNWYQQKPGQPPKLLIYAASNLDTGIPARFSGSGSGTDFTLTISSVEEEDTATYYCQQSNEDPYTFGGGTKVEIKR
- IC50, 抑制TSLP刺激的293F转染细胞STAT5-荧光素酶活性 [3]: 3.22 µg/mL

B3: 人源化单克隆抗体1K3/1H3 (antibody, human IgG1, kappa, V domains shown)
VH: EVQLVESGGGLVQPGGSLRLSCAASGFTFSSFGMHWVRQAPGKGLEWVSYISSGSSIIYYADTVKGRFTISRDNAKNSLFLQMNSLRSEDTAVYYCAREPYGYDVYYFDYWGQGTLVTVSS
VL: DIVMTQSPASLAVSPGQRATISCKASQSIDYDGDSYMNWYQQKPGQPPKLLIYAASNLDTGIPARFSGSGSGTDFTLTISSVEEEDTATYYCQQSNEDPYTFGGGTKVEIKR
notes: Humanized from 1K/1H; expressed in 293F cells
- binding result [4]: binds

B4: 人源化单克隆抗体1K1/1H1 (antibody, human IgG1, kappa, V domains shown)
VH: EVQLVESGGGLVQPGGSRRLSCAASGFTFSSFGMNWVRQAPEKGLEWVAYISSGSSIIYYADSVKGRFTISRDNAKNSLYLQMTSLRAEDTAVYYCAREPYGYDVYYFDYWGQGTLVTVSS
VL: DIVMTQSPASLAVSLGQRATITCKASQSIDYDGDSYMNWYQQKPGQPPKLLIYAASNLDSGVPARFSGSGSGTDFTLTIHPVEPEDFATYYCQQSNEDPYTFGGGTKVEIKR
notes: as for B3
- binding result [4]: binds

B5: 人源化单克隆抗体1K2/1H3 (antibody, human IgG1, kappa, V domains shown)
VH: EVQLVESGGGLVQPGGSLRLSCAASGFTFSSFGMHWVRQAPGKGLEWVSYISSGSSIIYYADTVKGRFTISRDNAKNSLFLQMNSLRSEDTAVYYCAREPYGYDVYYFDYWGQGTLVTVSS
VL: DIVLTQSPASLAVSLGQRATITCKASQSIDYDGDSYLNWYQQKPGQPPKLLIYAASNKDSGVPARFSGSGSGTDFTLTINPVEAEDFAVYYCQQSNEDPYTFGGGTKVEIKR
notes: as for B3
- binding result [4]: binds

B6: 人源化单克隆抗体1K2/1H1 (antibody, human IgG1, kappa, V domains shown)
VH: EVQLVESGGGLVQPGGSRRLSCAASGFTFSSFGMNWVRQAPEKGLEWVAYISSGSSIIYYADSVKGRFTISRDNAKNSLYLQMTSLRAEDTAVYYCAREPYGYDVYYFDYWGQGTLVTVSS
VL: DIVLTQSPASLAVSLGQRATITCKASQSIDYDGDSYLNWYQQKPGQPPKLLIYAASNKDSGVPARFSGSGSGTDFTLTINPVEAEDFAVYYCQQSNEDPYTFGGGTKVEIKR
notes: as for B3
- binding result [4]: binds

B7: 人源化单克隆抗体1K3/1H1 (antibody, human IgG1, kappa, V domains shown)
VH: EVQLVESGGGLVQPGGSRRLSCAASGFTFSSFGMNWVRQAPEKGLEWVAYISSGSSIIYYADSVKGRFTISRDNAKNSLYLQMTSLRAEDTAVYYCAREPYGYDVYYFDYWGQGTLVTVSS
VL: DIVMTQSPASLAVSPGQRATISCKASQSIDYDGDSYMNWYQQKPGQPPKLLIYAASNLDTGIPARFSGSGSGTDFTLTISSVEEEDTATYYCQQSNEDPYTFGGGTKVEIKR
notes: as for B3
- binding result [4]: binds

B8: 人源化单克隆抗体1K1/1H3 (antibody, human IgG1, kappa, V domains shown)
VH: EVQLVESGGGLVQPGGSLRLSCAASGFTFSSFGMHWVRQAPGKGLEWVSYISSGSSIIYYADTVKGRFTISRDNAKNSLFLQMNSLRSEDTAVYYCAREPYGYDVYYFDYWGQGTLVTVSS
VL: DIVMTQSPASLAVSLGQRATITCKASQSIDYDGDSYMNWYQQKPGQPPKLLIYAASNLDSGVPARFSGSGSGTDFTLTIHPVEPEDFATYYCQQSNEDPYTFGGGTKVEIKR
notes: as for B3
- binding result [4]: binds

B9: 鼠源TSLP单克隆抗体3A1H2B2E1(1K/1H) (antibody, mouse IgG1, kappa)
heavy: EVKLVESGGGLVQPGGSRKLSCAASGFTFSSFGMHWVRQAPEKGLEWVAYISSGSSIIHYADTVKGRFTISRDNPKNTLFLQMTSLRSEDTAMYYCAREPYGYDVYYFDYWGQGTTITVSSAKTTPPSVYPLAPGSAAQTNSMVTLGCLVKGYFPEPVTVTWNSGSLSSGVHTFPAVLESDLYTLSSSVTVPSSPRPSETVTCNVAHPASSTKVDKKIVPRDCGCKPCICTVPEVSSVFIFPPKPKDVLTITLTPKVTCVVVDISKDDPEVQFSWFVDDVEVHTAQTQPREEQFNSTFRSVSELPIMHQDWLNGKEFKCRVNSAAFPAPIEKTISKTKGRPKAPQVYTIPPPKEQMAKDKVSLTCMITDFFPEDITVEWQWNGQPAENYKNTQPIMNTNGSYFVYSKLNVQKSNWEAGNTFTCSVLHEGLHNHHTEKSLSHSPGK
light: DIVMTQSPASLAVSLGQRATISCKASQSIDYDGDSYMNWYQQKPGQPPKLLIYAASNLDSGIPARFSGSGSGTDFTLNIHPVEEEDAATYYCQQSNEDPYTFGGGTKLEIKRADAAPTVSIFPPSSEQLTSGGASVVCFLNNFYPKDINVKWKIDGSERQNGVLNSWTDQDSKDSTYSMSSTLTLTKDEYERHNSYTCEATHKTSTSPIVKSFNRNEC
notes: also called 鼠源单克隆抗体1K/1H
- Kd [1]: 1.75 nM
- koff [1]: 0.000732 s⁻¹
- kon [1]: 418000 M⁻¹ s⁻¹
- IC50 [2]: 0.324 µg/mL

B10: 人源化单克隆抗体6K1/3H2 (antibody, human IgG1, kappa, V domains shown)
VH: QVQLVQSGAELKKPGASVKISCKASGFNIKDYYMHWVRQRPEQGLEWIGWIDPENGNTIYAQKFQGRATITADTSTDTAYMELSSLTSEDTAVYYCAREGDGNYLWFAYWGQGTLVTVSS
VL: DIQMTQSPSSLSASVGGKVTITCKASQDINKYIAWYQQKPGKGPKLLIHYTSTLEPGVPSRFSGSGSGRDFTFSISSLQPEDIATYYCLHYDNLLTFGGGTKVEIKR
notes: Humanized from 6K/3H; expressed in 293F cells
- binding result [4]: binds

B11: 人源化单克隆抗体6K2/3H3 (antibody, human IgG1, kappa, V domains shown)
VH: EVQLVESGAEVVKPGALVKVSCKASGFNIKDYYMHWVRQRPGQGLEWIGWIDPENGNTIYDQKFQGRVSITADTSTNTAYLELSSLTSEDTAVYYCAREGDGNYLWFAYWGQGTLVTVSS
VL: DIQLTQSPSSLSASVGDKVIITCKASQDINKYIAWYQQKPGKALKLLIHYTSTLETGVPSRFSGSGSGTDYTFSISNLQPEDIATYYCLHYDNLLTFGGGTKVELKR
notes: as for B10
- binding result [4]: binds

B12: 人源化单克隆抗体6K3/3H1 (antibody, human IgG1, kappa, V domains shown)
VH: QVKLVQSGAELVKPGASVKLSCKASGFNIKDYYMHWVRQRPGQGLEWIGWIDPENGNTMYAPKFQGRASITADTSTNTAYMQLSSLRSEDTAVYYCAREGDGNYLWFAYWGQGTLVTVSS
VL: DIQMTQSPSSLSASLGDKVTITCKASQDINKYIAWYQHKPGKAPKLLIHYTSTLEPGVPSRFSGSGSGTDFTFSISSLEPEDIATYYCLHYDNLLTFGGGTKLEIKR
notes: as for B10
- binding result [4]: binds

B13: 人源化单克隆抗体6K3/3H3 (antibody, human IgG1, kappa, V domains shown)
VH: EVQLVESGAEVVKPGALVKVSCKASGFNIKDYYMHWVRQRPGQGLEWIGWIDPENGNTIYDQKFQGRVSITADTSTNTAYLELSSLTSEDTAVYYCAREGDGNYLWFAYWGQGTLVTVSS
VL: DIQMTQSPSSLSASLGDKVTITCKASQDINKYIAWYQHKPGKAPKLLIHYTSTLEPGVPSRFSGSGSGTDFTFSISSLEPEDIATYYCLHYDNLLTFGGGTKLEIKR
notes: as for B10
- binding result [4]: binds

B14: 人源化单克隆抗体6K2/3H1 (antibody, human IgG1, kappa, V domains shown)
VH: QVKLVQSGAELVKPGASVKLSCKASGFNIKDYYMHWVRQRPGQGLEWIGWIDPENGNTMYAPKFQGRASITADTSTNTAYMQLSSLRSEDTAVYYCAREGDGNYLWFAYWGQGTLVTVSS
VL: DIQLTQSPSSLSASVGDKVIITCKASQDINKYIAWYQQKPGKALKLLIHYTSTLETGVPSRFSGSGSGTDYTFSISNLQPEDIATYYCLHYDNLLTFGGGTKVELKR
notes: as for B10
- binding result [4]: binds

B15: 人源化单克隆抗体6K3/3H2 (antibody, human IgG1, kappa, V domains shown)
VH: QVQLVQSGAELKKPGASVKISCKASGFNIKDYYMHWVRQRPEQGLEWIGWIDPENGNTIYAQKFQGRATITADTSTDTAYMELSSLTSEDTAVYYCAREGDGNYLWFAYWGQGTLVTVSS
VL: DIQMTQSPSSLSASLGDKVTITCKASQDINKYIAWYQHKPGKAPKLLIHYTSTLEPGVPSRFSGSGSGTDFTFSISSLEPEDIATYYCLHYDNLLTFGGGTKLEIKR
notes: as for B10
- IC50, 抑制TSLP刺激的293F转染细胞STAT5-荧光素酶活性 [3]: 0.182 µg/mL
- binding result [4]: binds

B16: 人源化单克隆抗体6K1/3H3 (antibody, human IgG1, kappa, V domains shown)
VH: EVQLVESGAEVVKPGALVKVSCKASGFNIKDYYMHWVRQRPGQGLEWIGWIDPENGNTIYDQKFQGRVSITADTSTNTAYLELSSLTSEDTAVYYCAREGDGNYLWFAYWGQGTLVTVSS
VL: DIQMTQSPSSLSASVGGKVTITCKASQDINKYIAWYQQKPGKGPKLLIHYTSTLEPGVPSRFSGSGSGRDFTFSISSLQPEDIATYYCLHYDNLLTFGGGTKVEIKR
notes: as for B10
- binding result [4]: binds

B17: 人源化单克隆抗体6K1/3H1 (antibody, human IgG1, kappa, V domains shown)
VH: QVKLVQSGAELVKPGASVKLSCKASGFNIKDYYMHWVRQRPGQGLEWIGWIDPENGNTMYAPKFQGRASITADTSTNTAYMQLSSLRSEDTAVYYCAREGDGNYLWFAYWGQGTLVTVSS
VL: DIQMTQSPSSLSASVGGKVTITCKASQDINKYIAWYQQKPGKGPKLLIHYTSTLEPGVPSRFSGSGSGRDFTFSISSLQPEDIATYYCLHYDNLLTFGGGTKVEIKR
notes: as for B10
- binding result [4]: binds

B18: 人源化单克隆抗体6K2/3H2 (antibody, human IgG1, kappa, V domains shown)
VH: QVQLVQSGAELKKPGASVKISCKASGFNIKDYYMHWVRQRPEQGLEWIGWIDPENGNTIYAQKFQGRATITADTSTDTAYMELSSLTSEDTAVYYCAREGDGNYLWFAYWGQGTLVTVSS
VL: DIQLTQSPSSLSASVGDKVIITCKASQDINKYIAWYQQKPGKALKLLIHYTSTLETGVPSRFSGSGSGTDYTFSISNLQPEDIATYYCLHYDNLLTFGGGTKVELKR
notes: as for B10
- binding result [4]: binds

— CN111196850A (BEIJING HUIZHI HEYUAN BIOTECHNOLOGY CO LTD, dated 2020)
